Assay results as given in patent US20180021429A1, “ANTICANCER AGENTS OR ANTIMETASTATIC AGENTS USING FSTL1 AND COMBINATION DRUG THEREOF” (PHARMA FOODS INTERNATIONAL CO., LTD., priority 2015, published 2018).

How the values were obtained:
[1] = system: GFP+F10-snail+ tumor cells; assay: In vivo drug efficacy of each anti-FSTL1 antibody clone, GFP+F10-snail+ tumor model (Example 32); set-up: species or system mouse
Protocol: (§1) • Day 0: transplantation of GFP+F10-snail+ tumor cells (3×10^5 cells subcutaneously & 2×10^4 cells intravenously) • Day 4: intraperitoneal administration of the antibody (first dose, 10 mg/kg) • Day 7: intraperitoneal administration of the antibody (second dose, 10 mg/kg)
(§2) Subcutaneous tumor was measured 4, 7, 10, 14, 17, 20, and 23 days after tumor cell transplantation.

[2] = system: C57/BL/6 mouse-derived spleen cells; assay: Treg induction inhibition test using mouse spleen cells stimulated with FSTL1 (Example 28); format: cell-based; conditions: FSTL1 5 ng/ml, antibody 5 μg/mL, 3 days; FIG. 116
Protocol: (§3) In this Example, the experiment was conducted according to Example 17. Specifically, 5 μg/mL of each antibody was added to a system in which C57/BL/6 mouse-derived spleen cells (2×10^6 cells) were stimulated with 5 ng/ml of FSTL1. After culture for 3 days, the percentage (%) of a Foxp3+CTLA4+ cell fraction in CD4+ T cells was analyzed as Treg cells by flow cytometry. Activity was compared with #6-55 used in the preceding studies.

FSTL1 [3] = target: T1, FSTL1 (Homo sapiens, UniProt Q12841); assay: MSC induction inhibition test using mouse bone marrow cells stimulated with FSTL1 (Example 27); format: cell-based; set-up: purchased R&D Systems, Inc. 1694-FN-050; conditions: FSTL1 20 ng/mL, antibody 10 μg/mL, 8 days
T1 sequence (Q12841 21-308): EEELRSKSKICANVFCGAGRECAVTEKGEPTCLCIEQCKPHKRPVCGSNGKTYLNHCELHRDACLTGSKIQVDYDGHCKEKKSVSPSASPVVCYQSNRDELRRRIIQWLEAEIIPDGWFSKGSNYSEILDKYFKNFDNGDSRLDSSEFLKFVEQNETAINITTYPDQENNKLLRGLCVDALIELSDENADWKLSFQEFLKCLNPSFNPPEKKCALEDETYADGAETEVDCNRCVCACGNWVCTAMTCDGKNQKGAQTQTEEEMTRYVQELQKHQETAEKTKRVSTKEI
Protocol: (§4) In this Example, the inhibitory activity of the anti-FSTL1 antibody was confirmed in an experimental system of mesenchymal stem cell induction while a FSTL1 inhibitory effect on MSC expansion induced not only by FSTL1 but by Snail+ tumor cells was also evaluated. For specific operation, each antibody (10 μg/mL) was added to systems in which C57/BL/6 mouse-derived bone marrow cells were stimulated with FSTL1 (20 ng/mL) or a culture supernatant of tumor cells. After culture for 8 days under stimulation, cell fraction CD45(−) cells (MSCs) containing MSCs at a high rate and CD45(−)CD146(+)ALCAM(+) cells (sMSCs) increasing in number in association with cancer metastasis were analyzed by flow cytometry in the same way as in Example 14, and the number of cells per culture system was counted. In this Example, mouse immunoglobulin manufactured by BioLegend, Inc. (4401408, Cone MG1-45) was used as a control antibody.
as §4, with “(#401408,” for “(4401408,”

FSTL1 [4] = target: T1, FSTL1; assay: Treg induction inhibition test using mouse spleen cells stimulated with FSTL1 (Example 28); format: cell-based; set-up: purchased R&D Systems, Inc. 1694-FN-050; conditions: FSTL1 5 ng/ml, antibody 5 μg/mL, 3 days
Protocol: as §3
as §3, with “[…]” for “#6-55”

FSTL1 [5] = target: T1, FSTL1; assay: Biacore T-200 affinity of mouse chimeric antibodies for human FSTL1 (Example 33); format: binding
Protocol: (§5) The mouse chimeric antibodies were immobilized onto Sensor Chip CM5 (GE Healthcare Japan Corp., BR-1005-30) using Mouse Antibody Capture Kit (GE Healthcare Japan Corp., BR-1008-38), and their affinity for human FSTL1 was calculated using Biacore T-200 (GE Healthcare Japan Corp.).
First, the exhaustive activity comparison of the obtained antibodies was conducted with the human FSTL1 concentration fixed to 10 μg/ml (Table 33-1, FIG. 122).
Next, the KD values of clone #6-55, #7-34, and #13 presumed to have high affinity in FIG. 122 were calculated with the antigen concentration adjusted to 0 to 20 μg/ml (Table 35-2).

[6] = system: C57/BL/6 mouse-derived bone marrow cells; assay: MSC induction inhibition test using mouse bone marrow cells, FSTL1 stimulation (Example 27); format: cell-based; conditions: FSTL1 20 ng/mL; antibody 10 μg/mL; 8 days; FIG. 21A
Protocol: as §4, with “(#401408,” for “(4401408,”

[7] = system: C57/BL/6 mouse-derived spleen cells; assay: Treg induction inhibition test using mouse spleen cells (Example 28); format: cell-based; conditions: FSTL1 5 ng/ml; antibody 5 μg/mL; 3 days; FIG. 22
Protocol: as §3

[8] = system: C57/BL/6 mouse-derived bone marrow cells; assay: MSC induction inhibition test using mouse bone marrow cells stimulated with FSTL1 (Example 27); format: cell-based; conditions: FSTL1 20 ng/mL, antibody 10 μg/mL, 8 days; flow cytometry; FIG. 115A
Protocol: as §4, with “(#401408,” for “(4401408,”

[9] = system: GFP+F10-snail+ tumor cells; assay: In vivo drug efficacy of each anti-FSTL1 antibody clone, Snail+ tumor bone metastasis model (Example 32); set-up: species or system mouse
Protocol: as §1, §2

[10] = system: GFP+F10-snail+ tumor cells; assay: In vivo drug efficacy of each anti-FSTL1 antibody clone, GFP+F10-snail+ tumor model (Example 32); set-up: species or system mouse; remark: listed apart in the source
Protocol: as §1, §2
Experiment Group (n=5) Control IgG (anti-DNP mAb) • #6-55 • #7 • #10 • #13 • #33
• Day 0: transplantation of GFP+F10-snail+ tumor cells (3×10^5, cells subcutaneously & 2×10^4 cells intravenously) • Day 4: intraperitoneal administration of the antibody (first dose, 10 mg/kg) • Day 7: intraperitoneal administration of the antibody (second dose, 10 mg/kg)

FSTL1 [11] = target: T1, FSTL1; assay: Affinity of mouse chimeric antibodies, Biacore T-200 (Example 33); format: binding
Protocol: as §5
First, the exhaustive activity comparison of the obtained antibodies was conducted with the human FSTL1 concentration fixed to 10 μg/ml (Table 33-1, FIG. 28).
Next, the KD values of clone #6-55, #7-34, and #13 presumed to have high affinity in FIG. 28 were calculated with the antigen concentration adjusted to 0 to 20 μg/ml (Table 35-2).

FSTL1 [12] = target: T1, FSTL1; assay: Affinity of mouse chimeric antibodies for human FSTL1, Biacore T-200 (Example 33); format: binding
Protocol: as §5
First, the exhaustive activity comparison of the obtained antibodies was conducted with the human FSTL1 concentration fixed to 10 μg/ml (Table 33-1, FIG. 58).
Next, the KD values of clone #6-55, #7-34, and #13 presumed to have high affinity in FIG. 58 were calculated with the antigen concentration adjusted to 0 to 20 μg/ml (Table 35-2).
First, the exhaustive activity comparison of the obtained antibodies was conducted with the human FSTL1 concentration fixed to 10 μg/ml (Table 33-1, FIG. 90).
Next, the KD values of clone #6-55, #7-34, and #13 presumed to have high affinity in FIG. 90 were calculated with the antigen concentration adjusted to 0 to 20 μg/ml (Table 35-2).

B1: #10: chicken-mouse chimeric anti-FSTL1 antibody clone; variable regions SEQ ID NO: 811 (light), 813 (heavy) (antibody, V domains shown)
VH: AVTLDESGGGLQTPGGALSLVCKASGFFFFRIYDMGWVRQAPGKGLEWVAGIDDYGRYTGYGSAVKGRATISRDNGQSTVRLQLNNLRAEDTGTYYCARGAGTGCNSAGCGAYAGSIDAWGHGTEVIVSS
VL: ASTQPSSVSANPGETVKLTCSGGGSRYGWYQQKSPGSAPVTVIYYNDKRPSDIPSRFSGSKSGSTATLTITGVQAEDEAVYFCGGYDGSRDAGIFGAGTTLTVL
modifications: mouse constant regions
[1]; intraperitoneal 10 mg/kg on days 4 and 7, FIG. 121
  mouse survival period (life-prolonging effect): therapeutic effects equal to or higher than those of #6-55
[1]; stated as a possibility
  comprehensive evaluation of antitumor activity: high antitumor activity exceeding that of #6-55
[2]
  Treg induction (Foxp3+CTLA4+ fraction in CD4+ T cells): strong suppressive activity equal to or higher than that of #6-55
FSTL1 [3]
  MSC induction inhibitory activity, reproducibility confirmed: high MSC induction inhibitory activity equivalent to or higher than that of #6-55
  inhibitory effect in the MSC induction inhibition test (CD45(−) MSCs and sMSCs, flow cytometry): strong inhibitory effect equivalent to or higher than that of #6-55
FSTL1 [4]
  Treg induction (Foxp3+CTLA4+ fraction in CD4+ T cells): strong suppressive activity equal to or higher than that of #6-55
FSTL1 [5]
  affinity in an assay system using surface plasmon resonance: strong affinity
[6]
  MSC induction inhibitory activity (CD45(−) MSCs, CD45(−)CD146(+)ALCAM(+) sMSCs): high MSC induction inhibitory activity equivalent to or higher than that of #6-55
[7]
  Treg induction (Foxp3+CTLA4+ cell fraction in CD4+ T cells): strong suppressive activity equal to or higher than that of #6-55
[8]
  MSC induction inhibitory effect: strong inhibitory effect equivalent to or higher than that of #6-55
[9]; intraperitoneal 10 mg/kg on days 4 and 7, FIG. 27
  mouse survival period (life-prolonging effect): therapeutic effects equal to or higher than those of #6-55
[9]; mouse, in vivo
  comprehensive evaluation of antitumor activity: high antitumor activity exceeding that of #6-55
[10]; intraperitoneal 10 mg/kg on days 4 and 7, vs control antibody
  mouse survival period (life-prolonging effect): therapeutic effects equal to or higher than those of #6-55
[10]; mouse, in vivo
  comprehensive evaluation of antitumor activity: high antitumor activity exceeding that of #6-55
FSTL1 [11]
  affinity in surface plasmon resonance assay: strong affinity
FSTL1 [12]
  affinity in an assay system using surface plasmon resonance: strong affinity
